Source: patent US20060286636A1 (published 2006)
Where a chain is given by its changes, count along the chain named. In names and notes the source's numbering stands.

What was measured:
[1] = molecular target: T1, rat Neuropilin-1/Fc chimeric receptor (rat, UniProt Q9QWJ9 22-854); test: competition plate binding assay: cold competitor against 125I-VEGF165 on immobilized Np-1/Fc, scintillation counting
[2] = molecular target: T2, mouse VEGFR-2/Fc chimeric receptor (mouse, UniProt P35918 20-762); test: competition plate binding assay: cold competitor against 125I-VEGF165 on immobilized VEGFR-2 (KDR)/Fc, scintillation counting
T2 construct: Bought from R&D Systems; also called KDR; KDR receptor

[3] = molecular target: T3, mouse VEGFR-1/Fc chimeric receptor (mouse, UniProt P35969 23-759); test: competitive binding of cold competitor against 125I-VEGF165 on immobilized mouse VEGFR-1/Fc, one-site competition fit [panel VEGFR-1]
T3 construct: Bought from R&D Systems; also called Flt-1; Flt-1 receptor

[4] = molecular target: T1, rat Neuropilin-1/Fc chimeric receptor; test: competition plate binding assay, cold competitor against 125I-VEGF165 on immobilized rat neuropilin-1/Fc, without heparin
[5] = molecular target: T3, mouse VEGFR-1/Fc chimeric receptor; test: competition plate binding assay: cold competitor against 125I-VEGF165 on immobilized VEGFR-1 (Flt-1)/Fc, scintillation counting
[6] = molecular target: T1, rat Neuropilin-1/Fc chimeric receptor; test: competition plate binding assay, VEGF164 against 125I-VEGF165 on immobilized rat neuropilin-1/Fc, compared with HBD
[7] = molecular target: T2, mouse VEGFR-2/Fc chimeric receptor; test: competitive binding of cold competitor against 125I-VEGF165 on immobilized mouse VEGFR-2/Fc, one-site competition fit [panel VEGFR-2]
[8] = molecular target: T1, rat Neuropilin-1/Fc chimeric receptor; test: competition plate binding assay, HBD against 125I-VEGF165 on immobilized rat neuropilin-1/Fc

T1 sequence (Q9QWJ9 22-854, stated change not applied): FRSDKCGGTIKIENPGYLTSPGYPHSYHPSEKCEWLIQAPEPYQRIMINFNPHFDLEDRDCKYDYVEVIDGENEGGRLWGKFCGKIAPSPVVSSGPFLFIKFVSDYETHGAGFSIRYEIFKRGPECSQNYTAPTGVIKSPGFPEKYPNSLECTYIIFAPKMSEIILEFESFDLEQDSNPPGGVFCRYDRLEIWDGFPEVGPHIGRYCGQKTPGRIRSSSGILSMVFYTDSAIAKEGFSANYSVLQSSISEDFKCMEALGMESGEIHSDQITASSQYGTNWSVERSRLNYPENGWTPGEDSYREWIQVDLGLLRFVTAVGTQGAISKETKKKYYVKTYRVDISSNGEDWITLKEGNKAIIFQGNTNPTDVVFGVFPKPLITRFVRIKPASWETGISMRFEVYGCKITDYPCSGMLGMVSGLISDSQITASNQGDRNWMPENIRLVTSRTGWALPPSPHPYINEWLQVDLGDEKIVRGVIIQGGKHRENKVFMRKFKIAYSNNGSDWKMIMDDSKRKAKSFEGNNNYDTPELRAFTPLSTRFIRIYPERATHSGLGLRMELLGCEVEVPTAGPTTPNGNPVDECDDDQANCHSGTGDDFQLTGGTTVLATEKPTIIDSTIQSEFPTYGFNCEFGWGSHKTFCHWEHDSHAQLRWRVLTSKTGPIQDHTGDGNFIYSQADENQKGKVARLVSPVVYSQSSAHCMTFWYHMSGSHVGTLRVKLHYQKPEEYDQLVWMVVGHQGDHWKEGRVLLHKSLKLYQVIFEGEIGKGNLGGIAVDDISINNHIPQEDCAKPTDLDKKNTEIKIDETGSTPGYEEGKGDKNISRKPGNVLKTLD
T3 sequence (P35969 23-759, stated change not applied): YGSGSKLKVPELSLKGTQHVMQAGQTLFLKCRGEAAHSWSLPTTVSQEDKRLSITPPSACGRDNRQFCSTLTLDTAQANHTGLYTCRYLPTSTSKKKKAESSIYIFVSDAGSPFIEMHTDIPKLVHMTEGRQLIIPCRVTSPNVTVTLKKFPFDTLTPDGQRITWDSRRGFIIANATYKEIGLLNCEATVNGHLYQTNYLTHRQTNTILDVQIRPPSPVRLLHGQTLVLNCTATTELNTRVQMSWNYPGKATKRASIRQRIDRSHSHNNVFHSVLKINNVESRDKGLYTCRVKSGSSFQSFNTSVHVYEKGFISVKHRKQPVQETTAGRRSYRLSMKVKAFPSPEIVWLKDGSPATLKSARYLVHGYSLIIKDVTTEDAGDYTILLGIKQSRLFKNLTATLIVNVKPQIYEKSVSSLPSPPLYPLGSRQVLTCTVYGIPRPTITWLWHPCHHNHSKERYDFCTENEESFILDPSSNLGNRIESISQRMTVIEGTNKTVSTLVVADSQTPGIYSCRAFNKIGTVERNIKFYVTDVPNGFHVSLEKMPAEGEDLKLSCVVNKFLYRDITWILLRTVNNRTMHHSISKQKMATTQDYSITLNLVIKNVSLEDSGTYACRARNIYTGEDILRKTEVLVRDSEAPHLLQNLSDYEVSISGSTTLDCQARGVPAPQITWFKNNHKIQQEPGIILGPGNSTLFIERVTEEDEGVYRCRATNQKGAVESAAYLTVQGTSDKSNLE
T2 sequence (P35918 20-762, stated change not applied): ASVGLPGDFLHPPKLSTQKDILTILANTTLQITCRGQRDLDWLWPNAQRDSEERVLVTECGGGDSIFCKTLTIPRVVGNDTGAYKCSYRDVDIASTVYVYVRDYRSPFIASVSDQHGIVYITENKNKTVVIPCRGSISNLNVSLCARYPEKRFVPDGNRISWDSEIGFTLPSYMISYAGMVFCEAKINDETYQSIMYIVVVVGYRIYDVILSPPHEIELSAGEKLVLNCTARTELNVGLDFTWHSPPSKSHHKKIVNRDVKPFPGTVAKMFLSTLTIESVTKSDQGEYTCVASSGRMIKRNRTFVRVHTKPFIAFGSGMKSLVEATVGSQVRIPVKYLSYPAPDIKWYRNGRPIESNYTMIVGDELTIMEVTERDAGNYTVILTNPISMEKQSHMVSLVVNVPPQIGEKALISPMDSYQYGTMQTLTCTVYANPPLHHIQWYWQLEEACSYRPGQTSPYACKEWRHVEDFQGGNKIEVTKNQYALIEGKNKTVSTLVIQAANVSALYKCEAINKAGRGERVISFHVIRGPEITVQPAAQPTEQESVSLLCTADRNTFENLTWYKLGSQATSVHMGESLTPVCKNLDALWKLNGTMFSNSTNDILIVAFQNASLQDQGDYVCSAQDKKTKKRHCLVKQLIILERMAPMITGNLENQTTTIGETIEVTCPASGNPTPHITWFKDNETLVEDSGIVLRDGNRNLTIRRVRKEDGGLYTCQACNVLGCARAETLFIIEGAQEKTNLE

B1: VEGF164 double mutant R14A/R49A (ligand)
chain: APMAEGGGQNHHEVVKFMDVYQRSYCHPIETLVDIFQEYPDEIEYIFKPSCVPLMRCGGCCNDEGLECVPTEESNITMQIMRIKPHQGQHIGEMSFLQHNKCECRPKKDRARQENPCGPCSERAKHLFVQDPQTCKCSCKNTDSRCKARQLELNERTCACDKPRR
notes: ID No. 23; also called R14/R49A; mutant R14/R49A
For B1, the “IC50 (read off the curve)” value [1] was roughly 5 nM.

B2: VEGF164 (wild type) (ligand)
chain: APTTEGEQKSHEVIKFMDVYQRSYCRPIETLVDIFQEYPDEIEYIFKPSCVPLMRCAGCCNDEALECVPTSESNITMQIMRIKPHQSQHIGEMSFLQHSRCECRPKKDRTKPENHCEPCSERRKHLFVQDPQTCKCSCKNTDSRCKARQLELNERTCRCDKPRR
With B2 the “IC50 (read off the curve)” value [2] was roughly 0.08 nM, the “IC50 (read off the curve)” value [3] was roughly 0.04 nM and the IC50 [4] was 0.128 nM. For the same binder, the “IC50 (read off the curve)” value [5] was roughly 0.02 nM, the “fold stronger competitive binding than HBD” value [6] was roughly 230 fold and the “IC50 (read off the curve)” value [7] was roughly 0.2 nM.

B3: VEGF164 mutant K26A (ligand, mouse, UniProt Q00731-2 27-190, looked up)
chain: B2 chain with K135A
notes: mature
With B3 the “IC50 (read off the curve)” value [1] was roughly 0.4 nM and the “fold reduction of binding affinity compared to VEGF164” value [4] was 2.5 fold.

B4: recombinant heparin-binding domain of VEGF164 (HBD) (peptide)
chain: ARQENPCGPCSERRKHLFVQDPQTCKCSCKNTDSRCKARQLELNERTCRCDKPRR
notes: also called soluble HBD; VEGF55
B4 gave an IC50 [8] of 28.6 nM.

B5: VEGF120 (ligand)
chain: APTTEGEQKSHEVIKFMDVYQRSYCRPIETLVDIFQEYPDEIEYIFKPSCVPLMRCAGCCNDEALECVPTSESNITMQIMRIKPHQSQHIGEMSFLQHSRCECRPKKDRTKPEKCDKPRR
In the case of B5, the “IC50 (read off the curve)” value [2] is reported as roughly 0.08 nM and the “IC50 (read off the curve)” value [5] is reported as roughly 0.09 nM.
